Measurements taken from article PMC10570696, “DNA-translocation-independent role of INO80 remodeler in DNA damage repairs” (The Journal of Biological Chemistry, 2023).

Tests used:
[1] = target: human APE1 endonuclease (AP-endonuclease 1) (human) (UniProt P27695)
[2] = target: human APE1 endonuclease (AP-endonuclease 1) (human) (UniProt P27695); remark: listed apart in the source
INO80-C ΔN sub-complex = target: T1, INO80-C ΔN sub-complex (Saccharomyces cerevisiae, UniProt P53115); experiment: NADH-coupled ATPase assay (pyruvate kinase / lactate dehydrogenase), absorbance at […] nm; format: biochemical; conditions: nucleosome-stimulated (0-320 nM 0N80 mononucleosomes, Xenopus laevis histones); 80 nM complex; 1 mM ATP (2 mM stated elsewhere in the source); 2 mM MgCl2, 50 mM NaCl, pH 8, 30 °C
T1 construct: ten-subunit sub-complex; Ino80 truncated (residues 470-1490, printed 'residue 470 from 1490') with C-terminal Twin-Strep tag; MultiBac baculovirus, High Five insect cells; with Actin-related protein 5; Chromatin-remodeling complex subunit IES6; Ino eighty subunit 2; RuvB-like protein 1; RuvB-like protein 2; Actin-related protein 4; Actin-like protein ARP8; Actin; Ino eighty subunit 4

Sequence of human APE1 endonuclease (AP-endonuclease 1) (human) (P27695 whole entry): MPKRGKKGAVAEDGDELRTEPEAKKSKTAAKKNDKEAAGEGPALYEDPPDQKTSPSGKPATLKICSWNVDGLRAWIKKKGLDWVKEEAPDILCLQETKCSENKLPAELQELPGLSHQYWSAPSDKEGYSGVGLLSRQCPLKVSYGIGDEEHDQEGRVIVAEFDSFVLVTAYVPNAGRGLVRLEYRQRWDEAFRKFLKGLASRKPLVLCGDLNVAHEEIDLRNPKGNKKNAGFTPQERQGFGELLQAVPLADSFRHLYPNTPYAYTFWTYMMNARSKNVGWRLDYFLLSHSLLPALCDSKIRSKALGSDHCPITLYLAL

| APE1 incision assay: percent of dTHF(SHL-6) nucleosomes (100 nM) cleaved over 30 min by 5 nM APE1 with 25 nM INO80-C, with ATP (approximately 40% with APE1 alone) [1] [%] | APE1 incision assay after pre-treatment of the APE1-INO80-C mixture at 37 °C for 20 min, with ATP: proportion of incised nucleosomes [2] [%] | Compound | NADH-coupled ATPase assay (pyruvate kinase / lactate dehydrogenase), absorbance (INO80-C ΔN sub-complex) |
| --- | --- | --- | --- |
| 56 | 70 | endogenous yeast INO80-C complex (from UniProt P53115 1-1489; P53946 1-755; P32617 1-166; P40154 1-320; Q03940 1-463; Q12464 1-471; P80428 1-489; Q12386 1-881; P60010 1-375; Q08561 1-116; P35189 1-244; Q03435 1-203; P43579 1-692; Q12345 1-250; P40060 1-125) |  |
|  |  | Nc1ncnc2c1ncn2[C@@H]1O[C@H](COP(=O)(O)OP(=O)(O)OP(=O)(O)O)[C@@H](O)[C@H]1O [ATP] | conducted measurements of nucleosome-stimulated ATPase activity of INO80-C ΔN through a NADH+-coupled assay |
